Laboratory results taken from the supplement of paper PMC9112550, “Optimization of the antimicrobial peptide Bac7 by deep mutational scanning” (BMC Biology, 2022).

test system: Escherichia coli TOP10; experiment: shrunken log2 fold change of peptide-encoding DNA abundance (4.5 h post-induction vs induction); higher = less antimicrobial activity (less host growth inhibition); settings: time post-induction: 4.5 h; library: site-saturation at positions 5, 18, 19, 20
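Also: peptides expressed intracellularly from a pBAD plasmid library in pooled LB shake-flask culture, induced with 0.3% L-arabinose, DNA abundance read by NGS, three biological replicates, DESeq2 with apeglm shrinkage.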

In order of falling “shrunken log2 fold change” value:
1. RRIRVRPPRLPRPRPRPLWQPRP  2.32
2. RRIRGRPPRLPRPRPRPPAKPRP  1.48
3. RRIRARPPRLPRPRPRPPHEPRP  1.29
4. RRIRRRPPRLPRPRPRPEPAPRP  0.812
5. RRIRARPPRLPRPRPRPLYCPRP  0.765
6. RRIRGRPPRLPRPRPRPGRLPRP  0.706
7. RRIRWRPPRLPRPRPRPTGFPRP  0.645
8. RRIRPRPPRLPRPRPRPEFAPRP  0.602
9. RRIRRRPPRLPRPRPRPAGAPRP  0.497
10. RRIRKRPPRLPRPRPRPGLPPRP  0.348
11. RRIRTRPPRLPRPRPRPGCDPRP  0.256
12. RRIRFRPPRLPRPRPRPRVGPRP  0.24
13. RRIRGRPPRLPRPRPRPVWFPRP  0.239
14. RRIRVRPPRLPRPRPRPQPDPRP  0.23
15. RRIRGRPPRLPRPRPRPARKPRP  0.222
16. RRIRDRPPRLPRPRPRPDSNPRP  0.205
17. RRIRGRPPRLPRPRPRPDRHPRP  0.191
18. RRIRLRPPRLPRPRPRPEGCPRP  0.191
19. RRIRKRPPRLPRPRPRPDEMPRP  0.188
20. RRIRWRPPRLPRPRPRPAQSPRP  0.135
21. RRIRNRPPRLPRPRPRPASLPRP  0.0991
22. RRIRKRPPRLPRPRPRPPEQPRP  0.0815
23. RRIRDRPPRLPRPRPRPHAHPRP  0.0605
24. RRIRVRPPRLPRPRPRPQGNPRP  0.055
25. RRIRRRPPRLPRPRPRPWHDPRP  0.0389
26. RRIRDRPPRLPRPRPRPKQKPRP  0.03
27. RRIRERPPRLPRPRPRPVKTPRP  0.0285
28. RRIRWRPPRLPRPRPRPCCDPRP  0.0279
29. RRIRKRPPRLPRPRPRPGWWPRP  0.0245
30. RRIRQRPPRLPRPRPRPAESPRP  0.0234
31. RRIRQRPPRLPRPRPRPATSPRP  0.0218
32. RRIRNRPPRLPRPRPRPCWIPRP  -0.00906
33. RRIRQRPPRLPRPRPRPGDIPRP  -0.0112
34. RRIRERPPRLPRPRPRPNREPRP  -0.0209
35. RRIRDRPPRLPRPRPRPFTIPRP  -0.0247
36. RRIRDRPPRLPRPRPRPCWFPRP  -0.0292
37. RRIRPRPPRLPRPRPRPMAIPRP  -0.0296
38. RRIRSRPPRLPRPRPRPYQTPRP  -0.0406
39. RRIRDRPPRLPRPRPRPPPYPRP  -0.0814
40. RRIRFRPPRLPRPRPRPEIIPRP  -0.0938
41. RRIRYRPPRLPRPRPRPISRPRP  -0.113
42. RRIRHRPPRLPRPRPRPACIPRP  -0.132
43. RRIRQRPPRLPRPRPRPVQMPRP  -0.163
44. RRIRERPPRLPRPRPRPQDRPRP  -0.167
45. RRIRRRPPRLPRPRPRPYGNPRP  -0.219
46. RRIRSRPPRLPRPRPRPNKSPRP  -0.266
47. RRIRNRPPRLPRPRPRPTMDPRP  -0.266
48. RRIRYRPPRLPRPRPRPTHVPRP  -0.27
49. RRIRIRPPRLPRPRPRPTWMPRP  -0.306
50. RRIRERPPRLPRPRPRPVGKPRP  -0.309
51. RRIRSRPPRLPRPRPRPLNSPRP  -0.327
52. RRIRVRPPRLPRPRPRPAIPPRP  -0.356
53. RRIRLRPPRLPRPRPRPEFKPRP  -0.4
54. RRIRARPPRLPRPRPRPGYNPRP  -0.403
55. RRIRCRPPRLPRPRPRPSNLPRP  -0.425
56. RRIRCRPPRLPRPRPRPIFNPRP  -0.542
57. RRIRARPPRLPRPRPRPVKLPRP  -0.59
58. RRIRERPPRLPRPRPRPFIEPRP  -0.59
59. RRIRNRPPRLPRPRPRPYPPPRP  -0.671
60. RRIRERPPRLPRPRPRPSNPPRP  -0.681
61. RRIRERPPRLPRPRPRPSFIPRP  -0.906
62. RRIRFRPPRLPRPRPRPYWIPRP  -1.07
